Results published in the nanobody polyreactivity screen of Harvey et al. (2022).

Assay: yeast display, Sf9 membrane polyspecificity reagent, FACS + sequencing; frameworks hold sequencing errors
Summary of the method: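 Genes from sorted yeast were amplified by colony PCR, read by MiSeq 2 × 250 sequencing and filtered on CDR length. These cells carried a synthetic nanobody library in Saccharomyces cerevisiae BJ5465 and were sorted by FACS into low and high (top ~1%) gates on anti-HA and streptavidin fluorescence. Polyreactivity is labelled according to the gate of origin.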

| Sequence | polyreactivity (PSR sort gate) |
| --- | --- |
| QVQLVESGGGLVQAGGSLRLSCAASASTFILSAMGWYRQAPGNERELVAAISSDGSTYYADSVKGRFTISRDNAKNTVYLQMNSLKPEDTAVYYCAAYGYDADTGYDYWGQGTQVTVSS | low polyreactivity |
| QVQLVESGGGLVQAGGSLRLSCAASGSIFDPYAMGWYRQAPGKERELVAAITASGSSTYYADSVKGRFTISRDNAKNTVYLQMNSLKPEDTAVYYCAADRANWEYLLSWLGYDYWGQGTQVTVSS | low polyreactivity |
| QVQLVESGGGLVQAGGSLRLSCAASGITFNWYAMGWYRQAPGKERELVAAISGSGGRTYYADSVKGRFTISRDYPKNTVYLQMTSLKPEDTAVYYCNKVPYYAGQNYVYWGQGTQVTVSS | high polyreactivity |
| QVQLVESGGGLVQAGGSLRLSCAASGSIFKTYAMGWYRQAPGKERELVAAISRSTSRTYYADSVKGRFTISRDNAKNTVYLQMNSLKPEDTAVYYCAAHRSTRGTKLYYWGQGTQVTVSS | high polyreactivity |
| QVQLVESGGGLVQAGGSLRLSCAATGSTIRSYGMGWYRQAPGKERELVASISWSGGSTYYADSVKGRFTISRDNAKNTVYLQMNSLKPEDTAVYYCAAGTLYSLYFGRHGYWGQGTQVTVSS | low polyreactivity |
| QVQLVESGGGLVQAGGSLRLSCAASGSTFSWYSMGWYRQAPGKQRELVAAISSRGGRTYYADSVKGRFTISRDNAKNTVYLQMNSLKPDDTAVYFCAARSRRGEYDYWGQGTQVTVSS | high polyreactivity |
| QVQLVDSRGGLVQAGGSLRLSCAASGNTFGFNAMGWNRQARGKERHLVAAITWSVGRTYYADSVKRRFTISRDHAKNTVYLEMNSLKPEDTAVYYCAKDFEAGDDYFAYDYWGQGTQVTVSS | low polyreactivity |
| HVQLQESGRRPGAAGGSPRMSCAASGNIYWVAVMGRYRQAPGEERELVASIGFGCTTYYADSVKCRFTISRDNAKNTVYLQMISLKPEDTAVYYCAAPHYDWGELDYWGQGTQVPVSS | low polyreactivity |
| QVQHVESGGGLVQAGSLRLSCAASGSTFPYNAMGWYREAPGKERELVATISWSGGSTYYADSVKGRFTISRDNAKNTVYLQMNSLKPEDTAVYYCNATYGSSYDYWGQGTQVTVSS | low polyreactivity |
| QVQLVESGGGLVQAGGSLRLSCAASGRIFGHYVMGWYRQAPGKERELVAGISSGGITYYADSVKGRFTISRDNAKNTVYLQMNSLKPEDTAVYYCAARVYYVRGSDTMDYWGQGTQVTVSS | low polyreactivity |
| QVQLVESGGGLVQAGGSLRLSCAASGLTFYSYAMGWYRQAPGKERELVATIRWSGGSTYYADSVKGRFTISRDNAKNTVYLQMNSLKPEDTAVYFCAADRRINYDGLDMDYWGQGTQVTVSS | low polyreactivity |
| QVQLVESGGGLVQAGGSLRLSCAASGSTFASYAMGWYRQAPGKERELVAAITNGGSTNYADSVKGRFTISRDNAKNTVYLQMNSLKPEDTAVYYCAAYDGFPRRYDYWGQGTQVTVSS | low polyreactivity |
| QVQLVESGGGIVQAGGSLRLSCAASGSTFRGNDMGWYRQAPGKERELVASIDWSGGSTYYADSVKGRFTISRDNAKNTVYLQMNSLKPEDTAVYYCAADTSYWYDYYIDYVGYYYWGQGTQVTVAS | high polyreactivity |
| QVQLVESGGGLVQAGGSLRLSCAASGLIFGGYAMGWYRQAPGKERELVAAISSSGGRTYYADSVKGRFTISRDNAKNTVYLQMNSLKPEDTAVYYCATRVHYRNDYWGQGTQVTVSS | high polyreactivity |
| QVQLVESGGGLVKAGGSLRLSCAASGFIFGYNDMGGYRQAPGKERELVAAITSRGDRTYYADSVKGRFTISRDNAKNTVYLQMNSLKPEDTAVYYCAAESQAYSLYWGQGTQLTVSS | high polyreactivity |
| QVQLVESGGGLVQAGGSLRLSCAASVRIFAKYAMGWYRQAPGKERELVAAIRWRGGNTYYADSVKGRFTISRDNAKNTVYLQMNSLKPEDTAVYYCAAGTWLGRGYIGQVESWGQGTQVTVSS | high polyreactivity |
| QVQLVESGGGLVQAGGSLRLSCAASGFTFRIYAMGWYRQAPGKERELVATISWSGTSTYYADSVKGRFTISRDNAKNTVYLQMNSLKPEDTAVYYCAKDGVSFYWLNKYYYWGQGTQVTVSS | low polyreactivity |
| QVQLVESGGGLVHAGGSLRLSCAPSGSIFTPYAMGWYRQAPAKDRELVADNTYRGGSTYYADSVKGRFTISRDNAKNSVYLQINSLKAEDSAVYYCNADVFTDYRHTRDDYWGQGTQVTVSS | low polyreactivity |
| QVQLVESGGGLVQAGGSLRLSCAASGFIFGFNAMGWYRQAPGKERELVAVFNRSGSRTYYADSVKGRFTISRDNAKNTVYLQMNSLKPEDTAVYYCNAYPRYQYWGQGTLVTVSS | high polyreactivity |
| QVQLVESGGGLVQAGGSLRLSCAASGRIFYRNVMGWYRQAPGKERELVAAITYRTGSTYYADSVKGRFTISRDNAKNTVYLQMNSLKPEDTAVYYCATESGLTYDYWGQGTQVTVSS | high polyreactivity |
| QVQLVESGGGLVQAGGSLRLSCAASGITFLSNAMGWYRQAPGKERELDAAISRGGGTTYYADSVKGRFTISRDIAKNTVYLLMNCLKPEDTAGSYCGTESTHTRRYWYEYWGLGTQVTVSS | high polyreactivity |
| QVQLVESGGGLVHAGGSLRLSCAASAFIFLFYTMGSYRQAPGKERELVAAITSVGNTNYADSVKGRFSISRDNAKNTVFLQINSLKPEDTAVYYCAADTTDPGGAYQLMDYWGQGTQVTLSS | low polyreactivity |

| Sequence | polyreactivity (PSR sort gate) |
| --- | --- |
| QVQLVESGGGLVQAGGSLRLSCAASGSIFKGNAMGWYRQAPGKERDLVAAISRSGGSTYYADSVKGRFTISRDNAKNTVYLQMNSLKPEDTAVYYCNAVRRNTVRSKGRYDYWGQGTQVTVSS | high polyreactivity |
| QVQLVESGGGLVQAGGSLRLSCAATGIIFRYAMGWYRQAPGKERELVAAIRKSDGSTYYADSVKGRFTISRDNAKNTVYLQMNSLKPEDTAVYYCATDIVYGNRKGFYYWGQGTQVTVSS | high polyreactivity |
| QVQHVESGEGLVQAGGSLRLSCAASGSIFAGYAMGWYRQAPGKERELVAAITSSGGSTYYADSVKGRFTISRDNAKNTVYLQMNSLKPEDTAVYYCAKDKLIFYRVGSDYWGQGTQVTVSS | low polyreactivity |
| QVQLVESGGGLVQAGGSLRLSCAASGFISSENAMGWYRQAPGKERELVAAISSGGSTNYADSVKGRFTISRDNAKNTVYLQMNSRKPEDTAVYYCAATLPGWYNEDDSWGQGTQVTVSS | low polyreactivity |
| QVQLVESGGGLVQAGGSLRLSCAASGSTFRGYAMGWYRQAPGKDRELVATISGSDGTTYYADSVQGRFTISRDNAKKTVYLQMNSLKPEDTAVYFCAAGETFEMYYWGQGTQVTVSS | low polyreactivity |
| QVQLVESGGGLVQAGGSLRLSCAASGSIFPDYGMGWYRQAPGKEREFVAAIDWSGTSTYYADSVKGRFTISRDNAKNTVYLQMNSLKPEDTAVYYCAARWDKSPFKLYDSWGQGTQVTVSS | low polyreactivity |
| QVQLVESGGGLVQAGGSLRLSCAASGRTFYYNTMGWYRQAPGKERELVAAITSRGSTYADSVKGRFTISRDNAKNTVYLQMNSLKPEDTAVYYCAAVWRYGSWYSGRLYEYWGQGTQVTVSS | high polyreactivity |
| QFQLVESVGGLVQAGGSLRLSCAASGLNFSNYAMGWYRQAPGKERELVAVSSSRVSRTYYADSVKGRFTISRDNAKNTVYLQMISLKPEDTAVYYCAARDRTEFYYWGQGTQVTVSS | high polyreactivity |
| QVQLVESGGRIVQAGGSLRLRCAASGSTFRWYAMGRYRQAPGKERQLVASITWSGGGTYYADSVKGRFTISRDNAKNTVYLQMNSLKPEDTAVYYCNRRTWRYETRGDDYWGQGTQVTVSS | high polyreactivity |
| QVQLVESGGGLVQAGGSLRLSCAASGSIFKYYTMGGYRQAPGKERELVAAISGSGSRTYYADSVKGRFTISRDNAKNTVYLQMNSLKPEDTAVYYCAAEVKDSFVNAKSYYWGQGTQVTVSS | high polyreactivity |
| QVQLVESGGGLVQAGGSLRLRCADSGSTFYDNAMGWYRQATGKVRELVATISDSGGRTYYADSVKGRFTISRDNAKNTVYLQMNSLKPEDTAVYYCAADNYYITTVTDMYYWGQGTQVTVSS | low polyreactivity |
| QVQLVESGGGLVQAGGSLRLSCAASGRTSWRYAMGWYRQAPGKERELVAAINRGGSTYYADSVMGRFTISRDNAKNTVYLQMNSLKPEDTAVYYFAVDTPLVYYHQQAYVAGEYWGQGTQVTVSS | low polyreactivity |
| QVQLVESGGGLVQAGGSLRLSCAASGSIFDTYSMGWYIQAPGKERELVAAISSGGRTYYADSVKGRFTISRDNAKNTVYLQMNSLKPEDTAVYYCNARYHARYGGDYWGQGTQVTVSS | high polyreactivity |
| QVQLVESGGGLVQAGGSLRLSCAASGSSFPGNAMGWYRQAPGKERELVARINDGADTNYADSVKGRFTISRDNAKNTVYLQMNSLKPEDTAVYYCAKPYYDGRTHFDSWGQGTQVTVSS | low polyreactivity |
| QVQLVESGAALVQAGGSLRLSCAASGFIIAVYAMGWYRQAPGKERELVAAITRSGGSTYYADSVKGRFTISRDNAKNTFYLQMNSLKPEDSAVYYCAARNTQPASYGYGYWGLGTQVTVSS | high polyreactivity |
| QVQLVESGGGLVHDGGSLRLSCAASGSILWPYAMGLYRQAPGKERELVAAISTGGSTYYADSVKGRFTISRDNANNTVYLQRNSLKPEDTAVYYCAAFVDYSVYFGGGYWGQGTQVTVSS | low polyreactivity |
| QVQLVESGGGLVQAGGSLRLSCAASGRIFGINAMGCYRQAPGKERELVAAINWSGGSTYYADSVKGRFTISRDNAKNTVYLQMNSLKPEDTEVYYCAAQKYKRVGYWGQVTQVTVSS | high polyreactivity |
| QVQIVESGGGLVQAGGSLRLSCDASGSIFGRNAMGWYRQAPGKERELVAAITRTGGRTYYPDSVKGRITISRDNAKNTVYLQMNSLKPEDTEVKYCARYGGYWSLKYDYWGQGTQVTVSS | high polyreactivity |
| QVQLVESGGGLVQAGGSLRLICAASGITFAWYAMGWYRQAPGKERELVAAIDDRGGSTYYADSVKWRFTISRDNAKNTVYLQMYSLKPEDTAVYYCNADTPSYEPYRLDYLGQGTQVTVSS | low polyreactivity |
| QVQLVESGGGLVQAGGSLRLSCAASGRIFYYYAMGGYRQAPWKERELVATISRAGITNYADSVKGRFTISRANAKNTVYLQMNSLKPEDTAVYYCAATFYPWRYHYEYWGQGTQVTVSS | high polyreactivity |
| QVQLVESGGGLVQAGGSLRLRCAASGLTFTYYAMGWYRQAPGKERELVAAISSGGNTNYADSVKGRFTISRDNAKNTVYLQMNSLKPEDTGVYYCAADDYYDHRVIYRSWYDYWGQGTQVTVSS | low polyreactivity |
